Paper PMC5645467, “Three-dimensional context rather than NLS amino acid sequence determines importin α subtype specificity for RCC1” (Nature Communications, 2017)

Legend:
[1] = target: ΔIBB-importin α3 (as used for ITC) (human, UniProt O00629 1-521, Limits not given; taken from the ΔIBB-importin α3 entity of PDB 4UAE (Met + 420 residues, starting VQNTS), which fits the expected complex MW of ~91.2 kDa. A construct running to 521 is possible.); test: ITC; nano-ITC, 20 °C; GST-RCC1 (300 µM) injected in 2.0 µl increments into 195 µl of ΔIBB-importin α3 or α1 (100 µM); 20 mM Tris-HCl pH 8.0, 150 mM NaCl, 5 mM BME, 0.1 mM PMSF; single set of binding sites model; triplicate; conditions: both partners purified
[2] = target: untagged ΔIBB-importin α3 (co-expressed with GST-RCC1) (human, UniProt O00629 1-521, Limits not given; taken from the ΔIBB-importin α3 entity of PDB 4UAE, which fits the expected complex MW of ~91.2 kDa. The 5TBK entity lists the full-length sequence although the IBB was deleted.); test: SAXS; purified importin α3:RCC1 complex in GF buffer, 3.5–7.5 mg ml^-1, physiological salt; conditions: both partners purified
Chain of untagged ΔIBB-importin α3 (co-expressed with GST-RCC1) (O00629 68-487, stated change not applied): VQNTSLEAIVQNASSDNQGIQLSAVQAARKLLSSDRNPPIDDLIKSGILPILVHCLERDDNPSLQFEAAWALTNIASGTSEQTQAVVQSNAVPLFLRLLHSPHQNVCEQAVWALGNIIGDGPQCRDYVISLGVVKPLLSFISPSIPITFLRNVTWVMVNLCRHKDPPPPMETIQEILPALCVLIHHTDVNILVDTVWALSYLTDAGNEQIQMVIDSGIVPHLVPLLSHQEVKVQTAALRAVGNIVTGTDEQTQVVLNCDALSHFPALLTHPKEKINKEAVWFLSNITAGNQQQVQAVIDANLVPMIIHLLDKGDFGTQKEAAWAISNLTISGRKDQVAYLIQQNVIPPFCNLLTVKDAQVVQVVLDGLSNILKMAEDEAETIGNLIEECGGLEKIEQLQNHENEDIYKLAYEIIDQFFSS

Chain of ΔIBB-importin α3 (as used for ITC) (O00629 68-487, stated change not applied): as above

Binder	stoichiometry N [1]	stoichiometry N [2]
GST-RCC1 (full-length human RCC1, wild type) (natural protein, UniProt P18754 1-421, looked up, human RCC1, predominant isoform RCC1α, synthetic gene (GenScript); β-propeller printed as residues 30–421; Used in the syringe for ITC (methods say GST-RCC1); also called full length GST-RCC1; WT GST-RCC1; source: E. coli BL21(DE3) AI or BL21(DE3), pGEX-6P, glutathione resin; not shown: GST, N-terminal, kept) MSPKRIAKRRSPPADAIPKSKKVKVSHRSHSTEPGLVLTLGQGDVGQLGLGENVMERKKPALVSIPEDVVQAEAGGMHTVCLSKSGQVYSFGCNDEGALGRDTSVEGSEMVPGKVELQEKVVQVSAGDSHTAALTDDGRVFLWGSFRDNNGVIGLLEPMKKSMVPVQVQLDVPVVKVASGNDHLVMLTADGDLYTLGCGEQGQLGRVPELFANRGGRQGLERLLVPKCVMLKSRGSRGHVRFQDAFCGAYFTFAISHEGHVYGFGLSNYHQLGTPGTESCFIPQNLTSFKNSTKSWVGFSGGQHHTVCMDSEGKAYSLGRAEYGRLGLGEGAEEKSIPTLISRLPAVSSVACGASVGYAVTKDGRVFAWGMGTNYQLGTGQDEDAWSPVEMMGKQLENRVVLSVSSGGQHTVLLVKDKEQS	< 1	
RCC1 (human, cleaved from GST, in the purified importin α3:RCC1 complex) (natural protein, UniProt P18754 1-421, looked up, human RCC1, predominant isoform RCC1α, synthetic gene; also called RCC1α; human RCC1; source: E. coli BL21-AI, co-expressed with ΔIBB-importin α3, cleaved off glutathione beads with PreScission Protease, SEC; not shown: GST, N-terminal, cleaved) MSPKRIAKRRSPPADAIPKSKKVKVSHRSHSTEPGLVLTLGQGDVGQLGLGENVMERKKPALVSIPEDVVQAEAGGMHTVCLSKSGQVYSFGCNDEGALGRDTSVEGSEMVPGKVELQEKVVQVSAGDSHTAALTDDGRVFLWGSFRDNNGVIGLLEPMKKSMVPVQVQLDVPVVKVASGNDHLVMLTADGDLYTLGCGEQGQLGRVPELFANRGGRQGLERLLVPKCVMLKSRGSRGHVRFQDAFCGAYFTFAISHEGHVYGFGLSNYHQLGTPGTESCFIPQNLTSFKNSTKSWVGFSGGQHHTVCMDSEGKAYSLGRAEYGRLGLGEGAEEKSIPTLISRLPAVSSVACGASVGYAVTKDGRVFAWGMGTNYQLGTGQDEDAWSPVEMMGKQLENRVVLSVSSGGQHTVLLVKDKEQS		1
